Assay results as given in patent US20030119038A1, “NARC1, novel subtilase-like homologs” (priority 1999, published 2003).
“Also recorded” adds a separate entry of the source. Read-outs that look alike come from different tables or passages of the source.

B1: wild-type NARC1: rat NARC1 subtilase-like protein, residues 56-746 of SEQ ID NO:3, expressed as C-terminal EGFP or myc/His fusion (protein)
chain: MGIRCSTWLRWPLSPQLLLLLLLCPTGSRAQDEDGDYEELMLALPSQEDSLVDEASHVATATFRRCSKEAWRLPGTYVVVLMEETQRLQVEQTAHRLQTWAARRGYVIKVLHVFYDLFPGFLVKMSSDLLGLALKLPHVEYIEEDSLVFAQSIPWNLERIIPAWQQTEEDSSPDGSSQVEVYLLDTSIQSGHREIEGRVTITDFNSVPEEDGTRFHRQASKCDSHGTHLAGVVSGRDAGVAKGTSLHSLRVLNCQGKGTVSGTLIGLEFIRKSQLIQPSGPLVVLLPLAGGYSRILNTACQRLARTGVVLVAAAGNFRDDACLYSPASAPEVITVGATNAQDQPVTLGTLGTNFGRCVDLFAPGKDIIGASSDCSTCYMSQSGTSQAAAHVAGIVAMMLNRDPALTLAELRQRLILFSTKDVINMAWFPEDQRVLTPNRVATLPPSTQETGGQLLCRTVWSAHSGPTRTATATARCAPEEELLSCSSFSRSGRRRGDRIEAIGGQQVCKALNAFGGEGVYAVARCCLLPRVNCSIHNTPAARAGPQTPVHCHQKDHVLTGCSFHWEVENLRAQQQPLLRSRHQPGQCVGHQEASVHASCCHAPGLECKIKEHGIAGPAEQVTVACEAGWTLTGCNVLPGASLPLGAYSVDNVCVARIRDAGRADRTSEEATVAAAICCRSRPSAKASWVHQ
modifications: C-terminal EGFP or myc/His tag; rattus norvegicus
B2: S385A: Full-length NARC1 point mutant; mutation of the active site serine (protein)
chain: MGIRCSTWLRWPLSPQLLLLLLLCPTGSRAQDEDGDYEELMLALPSQEDSLVDEASHVATATFRRCSKEAWRLPGTYVVVLMEETQRLQVEQTAHRLQTWAARRGYVIKVLHVFYDLFPGFLVKMSSDLLGLALKLPHVEYIEEDSLVFAQSIPWNLERIIPAWQQTEEDSSPDGSSQVEVYLLDTSIQSGHREIEGRVTITDFNSVPEEDGTRFHRQASKCDSHGTHLAGVVSGRDAGVAKGTSLHSLRVLNCQGKGTVSGTLIGLEFIRKSQLIQPSGPLVVLLPLAGGYSRILNTACQRLARTGVVLVAAAGNFRDDACLYSPASAPEVITVGATNAQDQPVTLGTLGTNFGRCVDLFAPGKDIIGASSDCSTCYMSQSGTAQAAAHVAGIVAMMLNRDPALTLAELRQRLILFSTKDVINMAWFPEDQRVLTPNRVATLPPSTQETGGQLLCRTVWSAHSGPTRTATATARCAPEEELLSCSSFSRSGRRRGDRIEAIGGQQVCKALNAFGGEGVYAVARCCLLPRVNCSIHNTPAARAGPQTPVHCHQKDHVLTGCSFHWEVENLRAQQQPLLRSRHQPGQCVGHQEASVHASCCHAPGLECKIKEHGIAGPAEQVTVACEAGWTLTGCNVLPGASLPLGAYSVDNVCVARIRDAGRADRTSEEATVAAAICCRSRPSAKASWVHQ
modifications: mutant of rat sequence mutating amino acid Ser385Ala of SEQ ID NO9
B3: H225W, S385A: Full-length NARC1 double mutant; active site histidine and serine mutated (protein)
chain: MGIRCSTWLRWPLSPQLLLLLLLCPTGSRAQDEDGDYEELMLALPSQEDSLVDEASHVATATFRRCSKEAWRLPGTYVVVLMEETQRLQVEQTAHRLQTWAARRGYVIKVLHVFYDLFPGFLVKMSSDLLGLALKLPHVEYIEEDSLVFAQSIPWNLERIIPAWQQTEEDSSPDGSSQVEVYLLDTSIQSGHREIEGRVTITDFNSVPEEDGTRFHRQASKCDSWGTHLAGVVSGRDAGVAKGTSLHSLRVLNCQGKGTVSGTLIGLEFIRKSQLIQPSGPLVVLLPLAGGYSRILNTACQRLARTGVVLVAAAGNFRDDACLYSPASAPEVITVGATNAQDQPVTLGTLGTNFGRCVDLFAPGKDIIGASSDCSTCYMSQSGTAQAAAHVAGIVAMMLNRDPALTLAELRQRLILFSTKDVINMAWFPEDQRVLTPNRVATLPPSTQETGGQLLCRTVWSAHSGPTRTATATARCAPEEELLSCSSFSRSGRRRGDRIEAIGGQQVCKALNAFGGEGVYAVARCCLLPRVNCSIHNTPAARAGPQTPVHCHQKDHVLTGCSFHWEVENLRAQQQPLLRSRHQPGQCVGHQEASVHASCCHAPGLECKIKEHGIAGPAEQVTVACEAGWTLTGCNVLPGASLPLGAYSVDNVCVARIRDAGRADRTSEEATVAAAICCRSRPSAKASWVHQ
modifications: mutant of rat sequence mutating amino acid His225Trp and Ser385Ala of SEQ ID NO9

Experiments:
furin [1] = target: furin (Homo sapiens, UniProt P09958); settings: cited from earlier work
Chain of furin (Homo sapiens, UniProt P09958) (P09958 108-794, species assumed): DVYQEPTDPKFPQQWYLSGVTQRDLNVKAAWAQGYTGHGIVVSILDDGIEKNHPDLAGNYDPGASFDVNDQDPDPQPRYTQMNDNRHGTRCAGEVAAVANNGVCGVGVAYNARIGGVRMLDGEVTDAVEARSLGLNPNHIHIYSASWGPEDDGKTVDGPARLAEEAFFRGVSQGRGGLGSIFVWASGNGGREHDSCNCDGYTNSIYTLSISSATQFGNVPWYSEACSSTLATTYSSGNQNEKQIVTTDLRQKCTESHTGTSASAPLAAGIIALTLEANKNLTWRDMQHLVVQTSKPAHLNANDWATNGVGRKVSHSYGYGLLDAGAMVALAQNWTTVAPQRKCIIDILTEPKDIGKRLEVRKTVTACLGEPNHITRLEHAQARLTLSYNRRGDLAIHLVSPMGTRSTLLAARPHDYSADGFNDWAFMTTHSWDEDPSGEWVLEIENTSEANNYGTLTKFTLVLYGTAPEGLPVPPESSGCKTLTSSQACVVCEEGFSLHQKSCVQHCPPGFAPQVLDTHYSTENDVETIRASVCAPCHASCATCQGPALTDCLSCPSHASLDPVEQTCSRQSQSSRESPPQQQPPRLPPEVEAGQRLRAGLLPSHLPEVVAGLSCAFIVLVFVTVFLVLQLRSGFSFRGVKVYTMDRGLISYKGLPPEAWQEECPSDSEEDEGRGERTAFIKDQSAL

Caspase 9 transfection = settings: 24-hour exposure
Source text: (§1) The serine protease inhibitors Aminoethyl-benzene sulfonyl fluoride, an irreversible inhibitor (AEBSF), Aprotinin, a reversible inhibitor, and N-Tosyl-lysine-chloromethylketone (TLCK, an inhibitor known to covalently bind to serine proteases) were investigated to see if any of these reagents can rescue the cell death effects of wild-type NARC1. Caspase 9 transfection was included to test for specificity of any rescue effects.

NARC1 transfectants = system: NARC1 transfectants
Experimental: Following transient expression of this construct in CGNs, the percentage of GFP positive and GFP negative cells undergoing apoptosis was determined by Laser-Scanning Cytometry.
Following transient expression of the wild-type and point-mutant NARC1 constructs in CGNs, the percentage of GFP-positive cells undergoing apoptosis was determined by Laser-Scanning Cytometry.
as §1
CGNs were transfected with each of the C-terminal truncation mutants described above. Following transient expression of these constructs, the percentage of GFP positive cells undergoing apoptosis was determined by Laser-Scanning Cytometry.

furin [2] = settings: Bathurst (1987); cited from earlier work
NARC1 [3] = experiment: Autoprocessing of NARC1 transiently expressed in COS-7 cells, Western blotting; type: cell-based, rat; settings: for Autoprocessing Activity: C-terminal myc/His fusion transiently expressed in COS-7 cells, 60 kD processing product on Western blot
Experimental: The wild-type NARC1-myc/His clone was transiently expressed in COS-7 cells. The cells were then harvested, lysed, and the protein extracted. Polyacrylamide gel electrophoresis was then carried out on the protein extracts, followed by Western blotting. The resulting membranes were probed using both anti-myc- and NARC1-specific antibodies. Routine techniques and protocols were followed. See, e.g., Ausubel et al.(1998), supra.
This cleavage event maps to approximately the junction between the pro-domain and the enzymatic domain.
Autoprocessing of NARC1 was investigated as follows. COS-7 cells were co-transfected with the following EGFP and myc plasmids: (A) wild-type NARC1-myc and wild-type NARC1-EGFP; (B) S385A NARC1-myc and S385A NARC1-EGFP; and (C) wild-type NARC1-myc and S385A NARC1-myc. The cells were then harvested, lysed, and the protein extracted. Polyacrylamide gel electrophoresis was then carried out on the protein extracts, followed by Western blotting. The resulting membranes were sequentially probed using first the anti-myc and then the anti-EGFP monoclonal antibodies (Abs). Thus, the experiment allowed sequential detection of the separate NARC1 products encoded from the two co-transfected plasmids.
As indicated above, a series of C-terminal truncation mutants were generated. The truncation NARC1-myc/His clones were transiently expressed in COS-7 cells. The cells were then harvested, lysed, the protein extracted, and polyacrylamide gel electrophoresis carried out on the protein extracts. Western analysis was then carried out using both anti-myc and NARC1-specific antibodies.

SY5Y cells = experiment: NARC1 overexpression in SY5Y cells, nuclear condensation by Hoechst assay; type: cell-based, human
Experimental: Wild-type and mutant NARC1 were overexpressed in SY5Y cells (a human neuroblastoma cell line). Nuclear condensation was assessed by Hoechst assay.

NARC1 [4] = target: T1, NARC1 (Rattus norvegicus, UniProt P59996); experiment: Autoprocessing of NARC1 expressed in E. coli
T1 construct: made in house; host or cells: E. coli
Experimental: The N-terminus of the processed protein was determined by protein microsequencing.

[5] = system: cerebellar granule neurons (CGNs); experiment: Apoptosis after transient expression of NARC1-EGFP constructs in CGNs, Laser-Scanning Cytometry; type: cell-based, rat; settings: EGFP construct transiently expressed in CGNs, percentage of GFP-positive cells undergoing apoptosis
Source text: Cerebellar granule neurons (CGNs) were transfected with a NARC1-enhanced green fluorescent protein (EGFP) expression construct (with the EGFP sequences located at the carboxy terminus of the fusion protein). Unless otherwise indicated, the construct utilized in the following experiments contained 2073 base pairs of the rat NARC1 transcript set forth in FIG. 5. Specifically, this corresponds to nucleotides 205-2277 and amino acid residues 56-746 of SEQ ID NO:4 and SEQ ID NO:3, respectively. The polypeptide sequence encoded by the NARC1 insert utilized herein has been set forth as SEQ ID NO:9 herein. The nucleotide sequence of this insert has been set forth as SEQ ID NO:10.
To investigate NARC1-mediated neuronal cell death, transient expression of the EGFP clones was carried out in cerebellar granule neurons (CGNs). These studies are set forth in detail as follows.

Ntera2 cells = experiment: NARC1-EGFP transfection of Ntera2 cells, nuclear area condensation; type: cell-based, human; settings: C-terminal EGFP constructs, 24 hours
Experimental: Specifically, Ntera2 cells were transfected with C-terminal EGFP constructs of wild-type NARC1, each of the point-mutant NARC1s, and caspase 9. At 24 hours, nuclear area condensation was assessed for the entire Ntera2 cell population and compared to nuclear area condensation for the transfected cell population.

Molecule	Rescue of cell death in NARC1 transfectants (NARC1 transfectants; 24-hour exposure)	Autoprocessing Activity (NARC1 [3])	Resulting Cell Death Activity [5]	Sensitivity of cells to expression (nuclear area condensation) (Ntera2 cells)	also measured
α1-PDX: α1-antitrypsin variant in which reactive center ALA-ILE-PRO-MET is replaced by ARG-ILE-PRO-ARG	–	–	–	–	Inhibition of cleavage of viral envelope glycoproteins, including HIV gp160 (furin [1]): inhibit the cleavage of viral envelope glycoproteins
Aminoethyl-benzene sulfonyl fluoride [AEBSF]	dose-dependent rescue of cell death	–	–	–	Rescue of Caspase 9-induced cell death (Caspase 9 transfection): substantial rescue; Toxicity (NARC1 transfectants; 48-hour exposure): appeared toxic
N-Tosyl-lysine-chloromethylketone [TLCK]	some suggestion of rescue	–	–	–	Rescue of cell death in NARC1 transfectants (NARC1 transfectants; 48-hour exposure): increased effectiveness
Aprotinin	some suggestion of rescue	–	–	–	Rescue of cell death in NARC1 transfectants (NARC1 transfectants; 48-hour exposure): increased effectiveness
variant of α1-antitrypsin: α1-antitrypsin variant with replacement of the reactive-site MET residue by ARG; protein-based furin inhibitor	–	–	–	–	Inhibition of in vitro conversion of proalbumin (furin [2]): inhibit the in vitro conversion of proalbumin
B1	–	normal autoprocessing	moderately pro-apoptotic	some sensitivity	Intermolecular cleavage of co-expressed S385A mutant (NARC1 [3]; COS-7 cells co-transfected with wild-type and S385A NARC1 carrying different tags, anti-myc then anti-EGFP Western): absence of intermolecular cleavage; Promotion of cell death (nuclear condensation) (SY5Y cells): does not promote cell death; Autoprocessing (NARC1 [4]): underwent autoprocessing; Resulting Cell Death Activity ([5]; listed as NARC1-EGFP): increase in apoptosis
B2	–	absence of autoprocessing; also recorded: eliminate NARC1 autoprocessing; also recorded: Absence of processing	reduced, but still substantial, pro-apoptotic effect; also recorded: somewhat reduce the pro-apoptotic effect; also recorded: Reduced activity	equally sensitive	–
B3	–	eliminate NARC1 autoprocessing; also recorded: Absence of processing	somewhat reduce the pro-apoptotic effect; also recorded: Reduced activity	equally sensitive	Autoprocessing Activity (NARC1 [3]; listed as double mutant): absence of autoprocessing; Resulting Cell Death Activity ([5]; listed as double mutant): reduced, but still substantial, pro-apoptotic effect
